Measurements reported in publication PMC9065173.

Target: CXC-chemokine receptor 4 (CXCR4) (human (endogenous in MOLM13 and CEM)) (UniProt P61073)
UniProt P61073, sequence (P61073 whole entry): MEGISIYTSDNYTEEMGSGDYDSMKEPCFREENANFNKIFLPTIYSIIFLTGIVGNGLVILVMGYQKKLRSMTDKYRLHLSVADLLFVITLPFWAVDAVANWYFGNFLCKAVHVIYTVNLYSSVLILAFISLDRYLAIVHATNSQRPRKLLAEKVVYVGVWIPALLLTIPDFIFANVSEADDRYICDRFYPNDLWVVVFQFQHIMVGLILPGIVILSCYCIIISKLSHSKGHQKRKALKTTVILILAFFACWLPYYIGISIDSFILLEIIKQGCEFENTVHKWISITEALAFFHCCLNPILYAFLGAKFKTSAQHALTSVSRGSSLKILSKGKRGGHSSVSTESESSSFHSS

apoptosis of MOLM13 cells after 4 days with T140-KLA-EVs (annexin V / PI staining, flow cytometry); no difference between T140-KLA-EVs and KLA-EVs in CXCR4-negative AsPC-1 cells: > 50%
Substance: bifunctional T140-KLA peptide, ligated onto the RBCEV surface (T140-KLA-EVs)
